Test results as given in article PMC6572788 (2019).
Blank lines part the entries; values can stand above or below the binder they belong to.

How the values were obtained:
[1] = biological target: T1, 2PT-NBD1 (human CFTR NBD1, residues 387–646, S492P/A534P/I539T) (human, UniProt P13569 387-646, S492P | A534P | I539T, biotin (in the ELISA; site not stated)); test: ELISA; printed as pEC50 7.9
[2] = biological target: T1, 2PT-NBD1 (human CFTR NBD1, residues …); test: ELISA; printed as pEC50 5.8
[3] = biological target: T1, 2PT-NBD1 (human CFTR NBD1, residues …); test: ELISA; printed as pEC50 7.6
[4] = biological target: T1, 2PT-NBD1 (human CFTR NBD1, residues …); test: ELISA; printed as pEC50 8.4
[5] = biological target: T1, 2PT-NBD1 (human CFTR NBD1, residues …); test: ELISA; printed as pEC50 8.7

T1 sequence (P13569 387-646 S492P/A534P/I539T): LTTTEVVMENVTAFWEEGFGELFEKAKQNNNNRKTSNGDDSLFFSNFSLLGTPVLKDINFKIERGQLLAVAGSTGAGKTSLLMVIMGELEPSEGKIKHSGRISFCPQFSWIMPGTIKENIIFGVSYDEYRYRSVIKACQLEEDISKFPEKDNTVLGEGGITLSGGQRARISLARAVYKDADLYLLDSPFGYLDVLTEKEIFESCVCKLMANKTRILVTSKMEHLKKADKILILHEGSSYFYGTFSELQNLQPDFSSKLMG

B2: nanobody G3a (VHH)
VHH: QVQLQESGGGLVQAGGSLRLSCTASGRAFSWYVMGWFRQAPGKEREFVATVSGNGSRRDYADSVKGRFTISRDNAKNTVYLQMNSLKPEDTAVYYCAASSTYYYTDPEKYDYWGQGTQVTVSS
EC50 [2]: 1580 nM

B3: nanobody D12 (VHH)
VHH: QVQLQESGGGLVQAGSSLRLACAATGSIRSINNMGWYRQAPGKQRGMVAIITRVGNTDYADSVKGRFTISRDNAKNTVYLQMNSLKPEDTATYYCHAEITEQSRPFYLTDDYWGQGTQVTVSS
EC50 [3]: 25.1 nM

B5: nanobody T2a (VHH)
VHH: QVQLQESGGGLVQAGGSLRLSCAASGSIFRIDAMGWYRQAPGKQRELVAHSTSGGSTDYADSVKGRFTISRDNAKNTVYLQMNSLKPEDTAVYYCNADVRTRWYASNNYWGQGTQVTVSS
EC50 [1]: 12.6 nM

Other lines, results leading:

EC50 [1]: 12.6 nM
B1: nanobody T8 (VHH)
VHH: QVQLQESGGGLVQPGGSLRLSCAASGSTSSINAMGWYRQAPGKQREPVAISSSGGDTRYAEPVKGRFTISRDNAQNKVYLQMNSLKPEDTAVYYCWLNWGRTSVNSWGQGTQVTVSS

EC50 [4]: 3.98 nM
B4: nanobody T4 (VHH)
VHH: QVQLQESGGGLVQAGGSLRLSCAASGSTFAIIAMGWYRQAPGKQRELVAVISTGDTRYADSVKGRFTISRDNAKNTVYLQMDSLRPEDTAVYYCNAAVQVRDYRNYWGQGTQVTVSS

EC50 [5]: 2 nM
B6: nanobody T27 (VHH)
VHH: QVQLQESGGGLEQPGGSLRLSCATSGVIFGINAMGWYRQAPGKQRELVATFTSGGSTNYADFVEGRFTISRDNAKNTVYLQMNGLRPEDTAVYYCHATVVVSRYGLTYDYWGQGTQVTVSS
